B1: mAb03 (imdevimab) (antibody, V domains shown)
VH: QVQLVESGGGVVQPGRSLRLSCAASGFTFSNYAMYWVRQAPGKGLEWVAVISYDGSNKYYADSVKGRFTISRDNSKNTLYLQMNSLRTEDTAVYYCASGSDYGDYLLVYWGQGTLVTVSS
VL: QSALTQPASVSGSPGQSITISCTGTSSDVGGYNYVSWYQQHPGKAPKLMIYDVSKRPSGVSNRFSGSKSGNTASLTISGLQSEDEADYYCNSLTSISTWVFGGGTKLTVL
B2: mAb21 (S2A4) (antibody, V domains shown)
VH: EVQLVESGGGLVQPGGSLRLSCAASGFTFSSYWMNWVRQAPGKGLEWVANIKQDGSEKYYVDSVKGRFTISRDNAKNSLFLQMNSLRAEDTAVYYCARVWWLRGSFDYWGQGTLVTVSS
VL: NFMLTQPHSVSESPGKTVTISCTGSSGSIASNYVQWYQQRPGSAPTTVIYEDNQRPSGVPDRFSGSIDSSSNSASLTISGLKTEDEADYYCQSYDSSNHVVFGGGTKLTVL
B3: mAb26 (4A8) (antibody, V domains shown)
VH: EVQLVESGAEVKKPGASVKVSCKVSGYTLTELSMHWVRQAPGKGLEWMGGFDPEDGETMYAQKFQGRVTMTEDTSTDTAYMELSSLRSEDTAVYYCATSTAVAGTPDLFDYYYGMDVWGQGTTVTVSS
VL: EIVMTQSPLSSPVTLGQPASISCRSSQSLVHSDGNTYLSWLQQRPGQPPRLLIYKISNRFSGVPDRFSGSGAGTDFTLKISRVEAEDVGVYYCTQATQFPYTFGQGTKVDIK
B4: mAb27 (H014) (antibody, V domains shown)
VH: EVQLVQSGAEVKKPGATVKISCKVSGYSFSNYYIHWVKQAPGKSLEWIGYIDPFNGGTSDNLKFKGAATLTADTSTDTAYMELSSLRSEDTAVYYCARSEYDPYYVMDYWGQGTTVTVSS
VL: IVLTQSPFQSVSPKEKVTITCRASQSISSNLHWYQQKPDQSPKLLIKYASQSISGIPSRFSGSGSGTDFTLTINSLEAEDFGIYFCQQTNFWPYIFGQGTKLEIL

Assays:
Assay in all cases: electrochemiluminescence
[1] = target: SARS-CoV-2 spike protein, Delta *2 (B.1.617.2; AY.4.2) (SARS-CoV-2, Delta B.1.617.2; AY.4.2 …, L452R)
[2] = target: SARS-CoV-2 spike protein, Delta *1 (B.1.617.2; AY.4) (SARS-CoV-2, Delta B.1.617.2; AY.4 …, L452R)
[3] = target: SARS-CoV-2 spike protein, Delta *3 (B.1.617.2; AY.3; AY.5; AY.6; AY.7; AY.14) (SARS-CoV-2, Delta (B.1.617.2; AY.3; …, L452R)
[4] = target: SARS-CoV-2 spike protein, Gamma (P.1) (SARS-CoV-2, Gamma (P.1), E484K)

Binder	relative binding (% of that to Wuhan spike, from AUCs) [1]	relative binding (% of that to Wuhan spike, from AUCs) [2]	relative binding (% of that to Wuhan spike, from AUCs) [3]	relative binding (% of that to Wuhan spike, from AUCs) [4]
B1	> 80%	> 80%	> 80%	
B2	> 80%	> 80%	> 80%	
B3				≥ 20%
B4	> 80%	> 80%	> 80%	
